According to article PMC8939769 (2022):

Biological target: SARS-CoV-2 spike protein receptor binding domain (RBD) (SARS-CoV-2, UniProt P0DTC2 319-541)
Experiment: ELISA

B1: AZD8895 (tixagevimab) (antibody, V domains shown)
VH: QMQLVQSGPEVKKPGTSVKVSCKASGFTFMSSAVQWVRQARGQRLEWIGWIVIGSGNTNYAQKFQERVTITRDMSTSTAYMELSSLRSEDTAVYYCAAPYCSSISCNDGFDIWGQGTMVTVSS
VL: not shown
Binder B1 has an IC50 of 0.0477 µg/mL.
